{"source": "paper doi:10.1101/2024.06.17.598829", "about": "(bioRxiv, 2024)", "proteins": {"B1": {"name": "MBP:NPH3-C104 (domain or fragment, Arabidopsis, UniProt Q9FMF5 643-746, looked up)", "chain": "PQSFQEGWAAAKKDINTLKFELETVKTKYVELQNEMEVMQRQFEKTGKVKNTPSSSAWTSGWKKLSKLTKMSGQESHDISSGGEQAGVDHPPPRKPRRWRNSIS"}}, "target": "the molecule itself", "test": "SEC", "note": "Values joined by “and” are separate entries in the source; they are usually repeats but may differ in a detail not shown here. Equal values may be shown once.", "data": [{"protein": "B1", "values": [{"measurement": "stoichiometry N", "result": "3 and 6"}]}]}
